Test results as given in the supplement of paper PMC10724198.
± gives the standard deviation of the averaged measurements.

tested on: Saccharomyces cerevisiae; assay: protein stability index of tFT-peptide fusion (C-terminal peptide) (PSI (0-1 scale)); higher = more stable (slower turnover); conditions: genetic background: cdc34-1; temperature: 37 C
Method: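 MPS profiling in S. cerevisiae of the tFT-X12 degron library: putative degron peptides plus stable controls, 12 aa, fused to the C-terminus of a sfGFP-mCherry timer. Cells are FACS-sorted into 8 mCherry/sfGFP bins and deep-sequenced. PSI runs from 0 (unstable) to 1 (stable). Backgrounds are wild type, das1Δ and doa10Δ at 30 °C, and wild type, das1Δ, cdc34-1 and cdc53-1 at 37 °C; 2-3 technical replicates each.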
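Also: PSI is a weighted mean of sequencing reads over stability bins, variants kept only with over 10 reads, mCherry proximal and sfGFP distal, peptide attached via GGGS linker.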

Sequence	protein stability index
HINRTIWARYQV	0.648 ± 0.069
HLGNTMIKKLIG	0.695 ± 0.049
HLYPFPSLHFAF	0.74 ± 0.043
HNQDKNVKYKIG	0.672 ± 0.023
HRDVISVVRNMS	0.625 ± 0.016
HRHCVSSYQKVS	0.662 ± 0.08
HRNILSIIIKNL	0.541 ± 0.083
ICTHPCLRLRLN	0.517 ± 0.039
IDLISRVTVVAR	0.394 ± 0.02
IDLVAFCTIFAL	0.4606 ± 0.0013
IERGLMLTLCVH	0.0536 ± 0.009
IERLRLRTRIIC	0.469 ± 0.053
IFIVLDFRCVSS	0.302 ± 0.1
IFLLFPFSWRIF	0.596 ± 0.042
IFLLLRRIIALS	0.126 ± 0.0094
IFPSRSLLAASA	0.403 ± 0.013
IFSFRWVLPFWL	0.611 ± 0.059
IHCLSIVVHGLS	0.527 ± 0.045
IHIFIIFRVQWK	0.176 ± 0.064
IHRSPLTLPLLV	0.526 ± 0.021
IIFCVRVVGGDL	0.449 ± 0.038
IIIRVTILCEQF	0.135 ± 0.097
IILAIRLLVDTL	0.0479 ± 0.026
IILRPQYVHYFL	0.532 ± 0.035
IIVLNIGSVIFC	0.456 ± 0.063
IKSLLGCWHKHY	0.679 ± 0.017

Sequence	protein stability index
ILCVEFFVSVSV	0.0684 ± 0.008
ILFVCVCVLHVG	0.112 ± 0.0052
INKRDARIHLLM	0.658 ± 0.012
IPHLNCCCCLVR	0.527 ± 0.013
IRDGPWKRVLVV	0.599 ± 0.031
IRVLACFLFAVS	0.202 ± 0.016
IVFGWGVEWGRL	0.757 ± 0.038
IVLCVFTVDSDF	0.36 ± 0.0079
IVSFRLDLSLAV	0.532 ± 0.069
IVWVSSFVCRSV	0.508 ± 0.082
IWVVIISDSRVG	0.33375 ± 0.00011
IWVWMLSVWLGG	0.303 ± 0.016
IYFFVLRLRLCG	0.278 ± 0.004
KIHILVVQIATR	0.0402 ± 0.0097
KKNITRLKNKMT	0.535 ± 0.032
KLLISLTWFCVL	0.395 ± 0.036
KLRMGRYIVRII	0.6637 ± 0.0034
KVFWRPAWVAEV	0.6563 ± 0.0016
LAVFSSPELSFP	0.727 ± 0.012
LCFTSVFTLFIC	0.288 ± 0.028
LCLLPVCLWDVG	0.451 ± 0.026
LCSCAVVICCSL	0.445 ± 0.0054
LCSVWVGIVLLC	0.156 ± 0.011
LDLSSLRCRYLL	0.639 ± 0.058
LDTTSRSRAKIS	0.509 ± 0.031
LFFGLCFVFFGF	0.384 ± 0.022

Sequence	protein stability index
LFFLSASFFFFF	0.458 ± 0.011
LFFSPRRLSPPT	0.705 ± 0.024
LFIVTFIPVLFS	0.49 ± 0.064
LFMLHFLAVLRY	0.124 ± 0.054
LFSFVCLVFFLW	0.312 ± 0.017
LFSPLKGILSVM	0.589 ± 0.0073
LFTTYVFLVFFQ	0.345 ± 0.011
LFVFTYPFLSWL	0.617 ± 0.011
LFVMVSVSGLVV	0.0501 ± 0.016
LFVVHCFLSVSS	0.0267 ± 0.0027
LFWFRGTIVTPR	0.693 ± 0.027
LGCFGSSFVFCC	0.565 ± 0.015
LGRVSAKFFCVL	0.654 ± 0.066
LGVCLFFVRCWS	0.1796 ± 0.0014
LIFRLCVCGVFW	0.516 ± 0.03
LILRVLFLFEPC	0.4385 ± 0.0028
LIRLCVAPMVCR	0.455 ± 0.02
LKKTLNGRRKMI	0.626 ± 0.019
LLASFWKFIVNI	0.613 ± 0.036
LLAWLHTVQRVG	0.695 ± 0.028
LLFLVCFFPSIS	0.46 ± 0.061
LLFYSYFFFVLY	0.172 ± 0.034
LLGGRVLWAWRV	0.653 ± 0.045
LLLLFPSPLFIR	0.126 ± 0.057
LLLRQVFSLGVF	0.549 ± 0.048
LLLVSLAVPLSL	0.524 ± 0.013

same assay, conditions: genetic background: cdc53-1; temperature: 37 C

Sequence	protein stability index
HINRTIWARYQV	0.742 ± 0.009
HLGNTMIKKLIG	0.722 ± 0.046
HLYPFPSLHFAF	0.791 ± 0.012
HNQDKNVKYKIG	0.733 ± 0.034
HRDVISVVRNMS	0.70886 ± 0.00045
HRHCVSSYQKVS	0.708 ± 0.013
HRNILSIIIKNL	0.681 ± 0.027
ICTHPCLRLRLN	0.662 ± 0.028
IDLISRVTVVAR	0.4267 ± 0.0012
IDLVAFCTIFAL	0.494 ± 0.032
IERGLMLTLCVH	0.0716 ± 0.028
IERLRLRTRIIC	0.481 ± 0.049
IFIVLDFRCVSS	0.463 ± 0.024
IFLLFPFSWRIF	0.6301 ± 0.0061
IFLLLRRIIALS	0.326 ± 0.044
IFPSRSLLAASA	0.457 ± 0.062
IFSFRWVLPFWL	0.701 ± 0.008
IHCLSIVVHGLS	0.569 ± 0.047
IHIFIIFRVQWK	0.232 ± 0.036
IHRSPLTLPLLV	0.584 ± 0.023
IIFCVRVVGGDL	0.508 ± 0.0054
IIIRVTILCEQF	0.176 ± 0.0098
IILAIRLLVDTL	0.179 ± 0.012
IILRPQYVHYFL	0.594 ± 0.027
IIVLNIGSVIFC	0.5884 ± 0.002
IKSLLGCWHKHY	0.732 ± 0.0077

Sequence	protein stability index
ILCVEFFVSVSV	0.2486 ± 0.0024
ILFVCVCVLHVG	0.198 ± 0.012
INKRDARIHLLM	0.6975 ± 0.0064
IPHLNCCCCLVR	0.497 ± 0.023
IRDGPWKRVLVV	0.596 ± 0.01
IRVLACFLFAVS	0.305 ± 0.017
IVFGWGVEWGRL	0.803 ± 0.027
IVLCVFTVDSDF	0.478 ± 0.058
IVSFRLDLSLAV	0.5949 ± 0.0024
IVWVSSFVCRSV	0.574 ± 0.02
IWVWMLSVWLGG	0.3731 ± 0.002
IYFFVLRLRLCG	0.291 ± 0.021
KIHILVVQIATR	0.134 ± 0.0054
KKNITRLKNKMT	0.676 ± 0.033
KLLISLTWFCVL	0.476 ± 0.014
KLRMGRYIVRII	0.661 ± 0.041
KVFWRPAWVAEV	0.7475 ± 0.0067
LAVFSSPELSFP	0.788 ± 0.015
LCFTSVFTLFIC	0.469 ± 0.026
LCLLPVCLWDVG	0.513 ± 0.016
LCSCAVVICCSL	0.4359 ± 0.0021
LCSVWVGIVLLC	0.236 ± 0.045
LDLSSLRCRYLL	0.725 ± 0.034
LDTTSRSRAKIS	0.6775 ± 0.0026
LFFGLCFVFFGF	0.459 ± 0.0067
LFFLSASFFFFF	0.554 ± 0.0066

Sequence	protein stability index
LFFSPRRLSPPT	0.7533 ± 0.0049
LFIVTFIPVLFS	0.545 ± 0.034
LFMLHFLAVLRY	0.1407 ± 0.00041
LFSFVCLVFFLW	0.375 ± 0.006
LFSPLKGILSVM	0.664 ± 0.011
LFTTYVFLVFFQ	0.474 ± 0.0096
LFVFTYPFLSWL	0.66 ± 0.011
LFVMVSVSGLVV	0.0999 ± 0.071
LFVVHCFLSVSS	0.0524 ± 0.033
LFWFRGTIVTPR	0.726 ± 0.017
LGCFGSSFVFCC	0.668 ± 0.02
LGRVSAKFFCVL	0.74 ± 0.013
LGVCLFFVRCWS	0.205 ± 0.0098
LIFRLCVCGVFW	0.549 ± 0.015
LILRVLFLFEPC	0.4842 ± 0.0035
LIRLCVAPMVCR	0.48 ± 0.0056
LKKTLNGRRKMI	0.73 ± 0.042
LLASFWKFIVNI	0.722 ± 0.015
LLAWLHTVQRVG	0.7529 ± 0.0028
LLFLVCFFPSIS	0.534 ± 0.016
LLFYSYFFFVLY	0.148 ± 0.0098
LLGGRVLWAWRV	0.689 ± 0.052
LLLLFPSPLFIR	0.0999 ± 0.026
LLLRQVFSLGVF	0.64 ± 0.023
LLLVSLAVPLSL	0.569 ± 0.014
